Substrate in series [1]: NC(=O)C1=CN([C@@H]2O[C@H](COP(=O)(O)OP(=O)(O)OC[C@H]3O[C@@H](n4cnc5c(N)ncnc54)[C@H](OP(=O)(O)O)[C@@H]3O)[C@@H](O)[C@H]2O)C=CC1
Kind of series: purified protein. It is filed as biochemical, Kluyveromyces marxianus. As to conditions: 100 mM acetate pH 5.5, 25°C, co-substrate methylglyoxal (5 mM in the standard assay), kcat unit as printed, presumably min^−1, varied: cofactor.

Substrate in series [2]: CC(=O)C=O
The series is described as follows: purified protein. The class given is biochemical, Kluyveromyces marxianus. The settings on record: 100 mM acetate pH 5.5, 25°C, 0.2 mM NADPH.

B1: KmGRE2 (YGL157w gene product) (Kluyveromyces marxianus) (protein)
chain: MTYVVVTGASGYLAQHVIKQLLERNYKVIGTVRNQQKAKDIAKLFQNDNLTLELVPDLLQADVFDDLFLKYTGQIKHVIHTASPCRFDTTEYENEMLLPAINGTKRVLESIKKYASETVETVVYTSSVSALANPAGILDSNLTLTEESWNPDSFEDGKKDVFSAYYVSKTFAERTAWDFWKENKDQVKFQLTTICPSYIFGPQAFEENAKGTLNFSTEIVNKILHSKPGDELDKNFAGAFVDVRDVARAHVLALEKPELKSKRLVLLNDVYALQDVADYINKHFPELRGKIATGVPGEGKEIVKYIAHYDNSKTKKLLGFEFISFGQAITDTVAQILKANN
notes: monomer, about 36 kDa by gel filtration, 40 kDa by SDS-PAGE
With B1, the values for the Michaelis constant (Km) in “purified protein [1]” and in “purified protein [2]” were 28 ± 1.2 µM and 300 ± 18 µM, respectively. The kcat in the series “purified protein [2]” was 1.3 × 10^3 ± 15 min^−1.

The values above are taken from article PMC4385108, “Characterization of the Kluyveromyces marxianus strain DMB1 YGL157w gene product as a broad specificity NADPH-dependent aldehyde reductase” (AMB Express, 2015).
